Assay results from US12099068B2, “Biomarkers for graft-versus-host disease” (Incyte Corporation, priority 2018, dated 2024).

System: plasma proteins
Experiment: Plasma proteins modulated between baseline and day 28 in responders (CR, VGPR, PR; n = 19), Example 6 (Table 13)
Type: in vivo, human
Details: plasma protein (OLINK NPX); responders (CR, VGPR, PR; n = 19); itacitinib 200 mg or 300 mg QD with corticosteroids; day 28 vs baseline
Method in brief: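 Plasma at baseline/screening and day 28 profiled for >1000 proteins by OLINK proximity extension assay, reported as NPX (log2). Steroid-naive and steroid-refractory patients pooled. Paired and unpaired t tests, ANOVA and Pearson correlation applied; significance at P<0.05.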

B1: STX8 (protein, UniProt Q9UNK0 1-236, looked up)
Syntaxin-8: MAPDPWFSTYDSTCQIAQEIAEKIQQRNQYERKGEKAPKLTVTIRALLQNLKEKIALLKDLLLRAVSTHQITQLEGDRRQNLLDDLVTRERLLLASFKNEGAEPDLIRSSLMSEEAKRGAPNPWLFEEPEETRGLGFDEIRQQQQKIIQEQDAGLDALSSIISRQKQMGQEIGNELDEQNEIIDDLANLVENTDEKLRNETRRVNMVDRKSASCGMIMVILLLLVAIVVVAVWPTN
Fold Change, Decreased Expression from Baseline to Day 28: −1.4796

B2: LY9 (protein, UniProt Q9HBG7 48-655, looked up)
T-lymphocyte surface antigen …: KDSAPTVVSGILGGSVTLPLNISVDTEIENVIWIGPKNALAFARPKENVTIMVKSYLGRLDITKWSYSLCISNLTLNDAGSYKAQINQRNFEVTTEEEFTLFVYEQLQEPQVTMKSVKVSENFSCNITLMCSVKGAEKSVLYSWTPREPHASESNGGSILTVSRTPCDPDLPYICTAQNPVSQRSSLPVHVGQFCTDPGASRGGTTGETVVGVLGEPVTLPLALPACRDTEKVVWLFNTSIISKEREEAATADPLIKSRDPYKNRVWVSSQDCSLKISQLKIEDAGPYHAYVCSEASSVTSMTHVTLLIYRRLRKPKITWSLRHSEDGICRISLTCSVEDGGNTVMYTWTPLQKEAVVSQGESHLNVSWRSSENHPNLTCTASNPVSRSSHQFLSENICSGPERNTKLWIGLFLMVCLLCVGIFSWCIWKRKGRCSVPAFCSSQAEAPADTPEPTAGHTLYSVLSQGYEKLDTPLRPARQQPTPTSDSSSDSNLTTEEDEDRPEVHKPISGRYEVFDQVTQEGAGHDPAPEGQADYDPVTPYVTEVESVVGENTMYAQVFNLQGKTPVSQKEESSATIYCSIRKPQVVPPPQQNDLEIPESPTYENFT
Fold Change, Decreased Expression from Baseline to Day 28: −1.4447

B3: ITGB1BP2 (protein, UniProt Q9UKP3 1-347, looked up)
Integrin beta-1-binding …: MSLLCRNKGCGQHFDPNTNLPDSCCHHPGVPIFHDALKGWSCCRKRTVDFSEFLNIKGCTMGPHCAEKLPEAPQPEGPATSSSLQEQKPLNVIPKSAETLRRERPKSELPLKLLPLNISQALEMALEQKELDQEPGAGLDSLIRTGSSCQNPGCDAVYQGPESDATPCTYHPGAPRFHEGMKSWSCCGIQTLDFGAFLAQPGCRVGRHDWGKQLPASCRHDWHQTDSLVVVTVYGQIPLPAFNWVKASQTELHVHIVFDGNRVFQAQMKLWGVINVEQSSVFLMPSRVEISLVKADPGSWAQLEHPDALAKKARAGVVLEMDEEESDDSDDDLSWTEEEEEEEAMGE
Fold Change, Decreased Expression from Baseline to Day 28: −1.8787

B4: APLP1 (protein, UniProt P51693 39-650, looked up)
Amyloid beta precursor like …: SLAGGSPGAAEAPGSAQVAGLCGRLTLHRDLRTGRWEPDPQRSRRCLRDPQRVLEYCRQMYPELQIARVEQATQAIPMERWCGGSRSGSCAHPHHQVVPFRCLPGEFVSEALLVPEGCRFLHQERMDQCESSTRRHQEAQEACSSQGLILHGSGMLLPCGSDRFRGVEYVCCPPPGTPDPSGTAVGDPSTRSWPPGSRVEGAEDEEEEESFPQPVDDYFVEPPQAEEEEETVPPPSSHTLAVVGKVTPTPRPTDGVDIYFGMPGEISEHEGFLRAKMDLEERRMRQINEVMREWAMADNQSKNLPKADRQALNEHFQSILQTLEEQVSGERQRLVETHATRVIALINDQRRAALEGFLAALQADPPQAERVLLALRRYLRAEQKEQRHTLRHYQHVAAVDPEKAQQMRFQVHTHLQVIEERVNQSLGLLDQNPHLAQELRPQIQELLHSEHLGPSELEAPAPGGSSEDKGGLQPPDSKDDTPMTLPKGSTEQDAASPEKEKMNPLEQYERKVNASVPRGFPFHSSEIQRDELAPAGTGVSREAVSGLLIMGAGGGSLIVLSMLLLRRKKPYGAISHGVVEVDPMLTLEEQQLRELQRHGYENPTYRFLEERP
Fold Change, Increased Expression from Baseline to Day 28: 1.4933

B5: NINJ1 (protein, UniProt Q92982 1-152, looked up)
Ninjurin-1: MDSGTEEYELNGGLPPGTPGSPDASPARWGWRHGPINVNHYASKKSAAESMLDIALLMANASQLKAVVEQGPSFAFYVPLVVLISISLVLQIGVGVLLIFLVKYDLNNPAKHAKLDFLNNLATGLVFIIVVVNIFITAFGVQKPLMDMAPQQ
Fold Change, Increased Expression from Baseline to Day 28: 1.2723

B6: SERPINA9 (protein, UniProt Q86WD7 24-417, looked up)
Serpin A9: ANAPSAYPRPSSTKSTPASQVYSLNTDFAFRLYRRLVLETPSQNIFFSPVSVSTSLAMLSLGAHSVTKTQILQGLGFNLTHTPESAIHQGFQHLVHSLTVPSKDLTLKMGSALFVKKELQLQANFLGNVKRLYEAEVFSTDFSNPSIAQARINSHVKKKTQGKVVDIIQGLDLLTAMVLVNHIFFKAKWEKPFHPEYTRKNFPFLVGEQVTVHVPMMHQKEQFAFGVDTELNCFVLQMDYKGDAVAFFVLPSKGKMRQLEQALSARTLRKWSHSLQKRWIEVFIPRFSISASYNLETILPKMGIQNVFDKNADFSGIAKRDSLQVSKATHKAVLDVSEEGTEATAATTTKFIVRSKDGPSYFTVSFNRTFLMMITNKATDGILFLGKVENPTKS
Fold Change, Increased Expression from Baseline to Day 28: 1.5418

B7: REN (protein, UniProt P00797 67-406, looked up)
Renin: LTLGNTTSSVILTNYMDTQYYGEIGIGTPPQTFKVVFDTGSSNVWVPSSKCSRLYTACVYHKLFDASDSSSYKHNGTELTLRYSTGTVSGFLSQDIITVGGITVTQMFGEVTEMPALPFMLAEFDGVVGMGFIEQAIGRVTPIFDNIISQGVLKEDVFSFYYNRDSENSQSLGGQIVLGGSDPQHYEGNFHYINLIKTGVWQIQMKGVSVGSSTLLCEDGCLALVDTGASYISGSTSSIEKLMEALGAKKRLFDYVVKCNEGPTLPDISFHLGGKEYTLTSADYVFQESYSSKKLCTLAIHAMDIPPPTGPTWALGATFIRKFYTEFDRRNNRIGFALAR
Fold Change, Increased Expression from Baseline to Day 28: 1.4074

B8: CD84 (protein, UniProt Q9UIB8 22-345, looked up)
SLAM family member 5: KDSEIFTVNGILGESVTFPVNIQEPRQVKIIAWTSKTSVAYVTPGDSETAPVVTVTHRNYYERIHALGPNYNLVISDLRMEDAGDYKADINTQADPYTTTKRYNLQIYRRLGKPKITQSLMASVNSTCNVTLTCSVEKEEKNVTYNWSPLGEEGNVLQIFQTPEDQELTYTCTAQNPVSNNSDSISARQLCADIAMGFRTHHTGLLSVLAMFFLLVLILSSVFLFRLFKRRQGRIFPEGSCLNTFTKNPYAASKKTIYTYIMASRNTQPAESRIYDEILQSKVLPSKEEPVNTVYSEVQFADKMGKASTQDSKPPGTSSYEIVI
Fold Change, Decreased Expression from Baseline to Day 28: −1.7208

B9: CD200R1 (protein, UniProt Q8TD46 25-348, looked up)
Cell surface glycoprotein …: EGAAQPNNSLMLQTSKENHALASSSLCMDEKQITQNYSKVLAEVNTSWPVKMATNAVLCCPPIALRNLIIITWEIILRGQPSCTKAYKKETNETKETNCTDERITWVSRPDQNSDLQIRTVAITHDGYYRCIMVTPDGNFHRGYHLQVLVTPEVTLFQNRNRTAVCKAVAGKPAAHISWIPEGDCATKQEYWSNGTVTVKSTCHWEVHNVSTVTCHVSHLTGNKSLYIELLPVPGAKKSAKLYIPYIILTIIILTIVGFIWLLKVNGCRKYKLNKTESTPVVEEDEMQPYASYTEKNNPLYDTTNKVKASEALQSEVDTDLHTL
Fold Change, Decreased Expression from Baseline to Day 28: −1.4752

B10: TACSTD2 (protein, UniProt P09758 27-323, looked up)
Tumor-associated calcium …: HTAAQDNCTCPTNKMTVCSPDGPGGRCQCRALGSGMAVDCSTLTSKCLLLKARMSAPKNARTLVRPSEHALVDNDGLYDPDCDPEGRFKARQCNQTSVCWCVNSVGVRRTDKGDLSLRCDELVRTHHILIDLRHRPTAGAFNHSDLDAELRRLFRERYRLHPKFVAAVHYEQPTIQIELRQNTSQKAAGDVDIGDAAYYFERDIKGESLFQGRGGLDLRVRGEPLQVERTLIYYLDEIPPKFSMKRLTAGLIAVIVVVVVALVAGMAVLVITNRRKSGKYKKVEIKELGELRKEPSL
Fold Change, Increased Expression from Baseline to Day 28: 1.1931

B11: GT (protein, UniProt P51161 2-128, looked up)
Gastrotropin: AFTGKFEMESEKNYDEFMKLLGISSDVIEKARNFKIVTEVQQDGQDFTWSQHYSGGHTMTNKFTVGKESNIQTMGGKTFKATVQMEGGKLVVNFPNYHQTSEIVGDKLVEVSTIGGVTYERVSKRLA
Fold Change, Increased Expression from Baseline to Day 28: 1.8699

B12: KAZALD1 (protein, UniProt Q96I82 31-304, looked up)
Kazal-type serine protease …: RPSPGPDYLRRGWMRLLAEGEGCAPCRPEECAAPRGCLAGRVRDACGCCWECANLEGQLCDLDPSAHFYGHCGEQLECRLDTGGDLSRGEVPEPLCACRSQSPLCGSDGHTYSQICRLQEAARARPDANLTVAHPGPCESGPQIVSHPYDTWNVTGQDVIFGCEVFAYPMASIEWRKDGLDIQLPGDDPHISVQFRGGPQRFEVTGWLQIQAVRPSDEGTYRCLGRNALGQVEAPASLTVLTPDQLNSTGIPQLRSLNLVPEEEAESEENDDYY
Fold Change, Increased Expression from Baseline to Day 28: 1.2609

B13: PRKRA (protein, UniProt O75569 1-313, looked up)
Interferon-inducible …: MSQSRHRAEAPPLEREDSGTFSLGKMITAKPGKTPIQVLHEYGMKTKNIPVYECERSDVQIHVPTFTFRVTVGDITCTGEGTSKKLAKHRAAEAAINILKANASICFAVPDPLMPDPSKQPKNQLNPIGSLQELAIHHGWRLPEYTLSQEGGPAHKREYTTICRLESFMETGKGASKKQAKRNAAEKFLAKFSNISPENHISLTNVVGHSLGCTWHSLRNSPGEKINLLKRSLLSIPNTDYIQLLSEIAKEQGFNITYLDIDELSANGQYQCLAELSTSPITVCHGSGISCGNAQSDAAHNALQYLKIIAERK
Fold Change, Decreased Expression from Baseline to Day 28: −1.2761

B14: SERPINA12 (protein, UniProt Q8IW75 21-414, looked up)
Serpin A12: LKPSFSPRNYKALSEVQGWKQRMAAKELARQNMDLGFKLLKKLAFYNPGRNIFLSPLSISTAFSMLCLGAQDSTLDEIKQGFNFRKMPEKDLHEGFHYIIHELTQKTQDLKLSIGNTLFIDQRLQPQRKFLEDAKNFYSAETILTNFQNLEMAQKQINDFISQKTHGKINNLIENIDPGTVMLLANYIFFRARWKHEFDPNVTKEEDFFLEKNSSVKVPMMFRSGIYQVGYDDKLSCTILEIPYQKNITAIFILPDEGKLKHLEKGLQVDTFSRWKTLLSRRVVDVSVPRLHMTGTFDLKKTLSYIGVSKIFEEHGDLTKIAPHRSLKVGEAVHKAELKMDERGTEGAAGTGAQTLPMETPLVVKIDKPYLLLIYSEKIPSVLFLGKIVNPIGK
Fold Change, Increased Expression from Baseline to Day 28: 1.567

B15: THY 1 (protein, UniProt P04216 20-130, looked up)
Thy-1 membrane glycoprotein: QKVTSLTACLVDQSLRLDCRHENTSSSPIQYEFSLTRETKKHVLFGTVGVPEHTYRSRTNFTSKYNMKVLYLSAFTSKDEGTYTCALHHSGHSPPISSQNVTVLRDKLVKC
Fold Change, Decreased Expression from Baseline to Day 28: −1.2913
